B1: STX5 (parent)
chain: RSEFTLMAKRIGKDLSNTFAKLEK
B2: ZNF649 (parent)
chain: EHERAHRGEKPHGCSLCGKAFYKR

Variants of: B1
Assay: protein stability index of a GFP-peptide fusion (GPS, HEK-293T) (PSI 1-6); higher = more stable
Settings: c terminus: a fixed tail appended
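Further: lentivirally expressed fusions sorted by FACS into six bins by GFP to DsRed ratio, PSI derived from sequencing read proportions per bin multiplied by bin number.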

Variant	protein stability index
RSEFTLMAKRIGKDFSNTFAKLEK [L15F]	2.92
RSEFTLMAKRIGKDCSNTFAKLEK [L15C]	1.53
RSEFTLMAKRIGKDQSNTFAKLEK [L15Q]	3.1
RSEFTLMAKRIGKDPSNTFAKLEK [L15P]	3.14
RSEFTLMAKRIGKDRSNTFAKLEK [L15R]	2.97
RSEFTLMAKRIGKDYSNTFAKLEK [L15Y]	2.4
RSEFTLMAKRIGKDISNTFAKLEK [L15I]	3.43
RSEFTLMAKRIGKDMSNTFAKLEK [L15M]	2.72
RSEFTLMAKRIGKDDSNTFAKLEK [L15D]	3.46
RSEFTLMAKRIGKDNSNTFAKLEK [L15N]	3.79
RSEFTLMAKRIGKDSSNTFAKLEK [L15S]	2.81
RSEFTLMAKRIGKDLGNTFAKLEK [S16G]	2.41
RSEFTLMAKRIGKDLENTFAKLEK [S16E]	1.41
RSEFTLMAKRIGKDLRNTFAKLEK [S16R]	3.34
RSEFTLMAKRIGKDLLNTFAKLEK [S16L]	2.89
RSEFTLMAKRIGKDLVNTFAKLEK [S16V]	3.75
RSEFTLMAKRIGKDLFNTFAKLEK [S16F]	4.43
RSEFTLMAKRIGKDLPNTFAKLEK [S16P]	2.46
RSEFTLMAKRIGKDLINTFAKLEK [S16I]	3.35
RSEFTLMAKRIGKDLWNTFAKLEK [S16W]	1.99
RSEFTLMAKRIGKDLQNTFAKLEK [S16Q]	2.14

Variant	protein stability index
RSEFTLMAKRIGKDLDNTFAKLEK [S16D]	2.45
RSEFTLMAKRIGKDLKNTFAKLEK [S16K]	3.85
RSEFTLMAKRIGKDLMNTFAKLEK [S16M]	1.72
RSEFTLMAKRIGKDLYNTFAKLEK [S16Y]	3.19
RSEFTLMAKRIGKDLCNTFAKLEK [S16C]	1.65
RSEFTLMAKRIGKDLSNTFATLEK [K21T]	2.01
RSEFTLMAKRIGKDLSNTFARLEK [K21R]	2.53
RSEFTLMAKRIGKDLSNTFASLEK [K21S]	2.95
RSEFTLMAKRIGKDLSNTFAFLEK [K21F]	2.61
RSEFTLMAKRIGKDLSNTFAGLEK [K21G]	2.21
RSEFTLMAKRIGKDLSNTFAILEK [K21I]	2.12
RSEFTLMAKRIGKDLSNTFAELEK [K21E]	2.04
RSEFTLMAKRIGKDLSNTFAMLEK [K21M]	1.94
RSEFTLMAKRIGKDLSNTFADLEK [K21D]	1.91
RSEFTLMAKRIGKDLSNTFAVLEK [K21V]	1.4
RSEFTLMAKRIGKDLSNTFAYLEK [K21Y]	1.45
RSEFTLMAKRIGKDLSNTFALLEK [K21L]	2.47
RSEFTLMAKRIGKDLSNTFACLEK [K21C]	2.69
RSEFTLMAKRIGKDLSNTFAHLEK [K21H]	2.51
RSEFTLMAKRIGKDLSNTFAALEK [K21A]	1.96
RSEFTLMAKRIGKDLSNTFAQLEK [K21Q]	2.8

Variant	protein stability index
RSEFTLMAKRIGKDLSNTFAPLEK [K21P]	2.38
RSEFTLMAKRIGKDLSNTFANLEK [K21N]	1.04
RSEFTLMAKRIGKDLSNTPAKLEK [F19P]	3.94
RSEFTLMAKRIGKDLSNTHAKLEK [F19H]	3.27
RSEFTLMAKRIGKDLSNTDAKLEK [F19D]	4.69
RSEFTLMAKRIGKDLSNTEAKLEK [F19E]	4.74
RSEFTLMAKRIGKDLSNTNAKLEK [F19N]	3.42
RSEFTLMAKRIGKDLSNTWAKLEK [F19W]	2.48
RSEFTLMAKRIGKDLSNTGAKLEK [F19G]	3.57
RSEFTLMAKRIGKDLSNTMAKLEK [F19M]	1.62
RSEFTLMAKRIGKDLSNTRAKLEK [F19R]	3.88
RSEFTLMAKRIGKDLSNTQAKLEK [F19Q]	3.44
RSEFTLMAKRIGKDLSNTVAKLEK [F19V]	1.96
RSEFTLMAKRIGKDLSNTSAKLEK [F19S]	3.85
RSEFTLMAKRIGKDLSNTIAKLEK [F19I]	2.24
RSEFTLMAKRIGKDLSNTAAKLEK [F19A]	2.79
RSEFTLMAKRIGKDLSNTCAKLEK [F19C]	2.69
RSEFTLMAKRIGKDLSNTTAKLEK [F19T]	3.8
RSEFTLMAKRIGKDLSNTKAKLEK [F19K]	2.71
RSEFTLMAKRIGKDLSNTYAKLEK [F19Y]	2.38

Variants of: B2
Assay: as above
Settings: c terminus: a fixed tail appended

Variant	protein stability index
EHDRAHRGEKPHGCSLCGKAFYKR [E3D]	2.01
EHARAHRGEKPHGCSLCGKAFYKR [E3A]	1.5
EHCRAHRGEKPHGCSLCGKAFYKR [E3C]	2.74
EVERAHRGEKPHGCSLCGKAFYKR [H2V]	1.07
EGERAHRGEKPHGCSLCGKAFYKR [H2G]	1.02
EDERAHRGEKPHGCSLCGKAFYKR [H2D]	2
ESERAHRGEKPHGCSLCGKAFYKR [H2S]	1.75
EYERAHRGEKPHGCSLCGKAFYKR [H2Y]	1.65
EFERAHRGEKPHGCSLCGKAFYKR [H2F]	2.8
EQERAHRGEKPHGCSLCGKAFYKR [H2Q]	3.21
EIERAHRGEKPHGCSLCGKAFYKR [H2I]	2
EMERAHRGEKPHGCSLCGKAFYKR [H2M]	2.06
EPERAHRGEKPHGCSLCGKAFYKR [H2P]	1.98
ECERAHRGEKPHGCSLCGKAFYKR [H2C]	2.01
EWERAHRGEKPHGCSLCGKAFYKR [H2W]	1.03
ETERAHRGEKPHGCSLCGKAFYKR [H2T]	3.15

Variant	protein stability index
ENERAHRGEKPHGCSLCGKAFYKR [H2N]	1.93
ELERAHRGEKPHGCSLCGKAFYKR [H2L]	1.6
YHERAHRGEKPHGCSLCGKAFYKR [E1Y]	2.38
RHERAHRGEKPHGCSLCGKAFYKR [E1R]	1.7
IHERAHRGEKPHGCSLCGKAFYKR [E1I]	1.49
PHERAHRGEKPHGCSLCGKAFYKR [E1P]	2.15
NHERAHRGEKPHGCSLCGKAFYKR [E1N]	1.69
MHERAHRGEKPHGCSLCGKAFYKR [E1M]	1.88
WHERAHRGEKPHGCSLCGKAFYKR [E1W]	1.85
THERAHRGEKPHGCSLCGKAFYKR [E1T]	3.46
KHERAHRGEKPHGCSLCGKAFYKR [E1K]	3.37
AHERAHRGEKPHGCSLCGKAFYKR [E1A]	2.16
DHERAHRGEKPHGCSLCGKAFYKR [E1D]	2.2
QHERAHRGEKPHGCSLCGKAFYKR [E1Q]	2.07
VHERAHRGEKPHGCSLCGKAFYKR [E1V]	2.77
HHERAHRGEKPHGCSLCGKAFYKR [E1H]	1.86

Source: the supplement of paper PMC10567573
